The text below walks through data of paper PMC3210417 (Nature structural & molecular biology, 2011).

Broadly, the stoichiometry N is the number of molecules, sites or subunits per partner or assembly.

For experiment [1], the target named is recombinant nucleosome core particle formed from full-length Xenopus recombinant histones and mouse (Xenopus). The experiment in a line: negative-stain EM of single particles.
The target of experiment [2] is T1, Epl1 (residues 51–380, EPcA domain) of Piccolo v07 (S. cerevisiae, UniProt P43572 51-380).
T1 sequence: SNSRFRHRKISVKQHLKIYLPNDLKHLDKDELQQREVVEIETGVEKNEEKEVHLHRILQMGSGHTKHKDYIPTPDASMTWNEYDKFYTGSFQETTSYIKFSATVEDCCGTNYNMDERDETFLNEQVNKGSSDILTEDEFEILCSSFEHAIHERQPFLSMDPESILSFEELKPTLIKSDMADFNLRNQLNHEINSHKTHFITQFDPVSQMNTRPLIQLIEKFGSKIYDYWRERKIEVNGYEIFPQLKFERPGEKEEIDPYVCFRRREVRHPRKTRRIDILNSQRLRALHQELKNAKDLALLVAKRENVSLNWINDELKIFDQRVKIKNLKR
The experiment in a line: AUC.

Take “NuA4 histone acetyltransferase complex (from UniProt P43572;Q08649;P38806;Q06337;P38811;Q12432;P39995;P53911;P53201;P53930;P60010;P80428;P47128)”: in experiment [1], the percent of NuA4 particles bound to NCP is 5% and the stoichiometry N is 1.

B1: Esa1 (residues 2–445), 6 × His-tagged, of Piccolo v07 (enzyme)
chain: SHDGKEEPGIAKKINSVDDIIIKCQCWVQKNDEERLAEILSINTRKAPPKFYVHYVNYNKRLDEWITTDRINLDKEVLYPKLKATDEDNKKQKKKKATNTSETPQDSLQDGVDGFSRENTDVMDLDNLNVQGIKDENISHEDEIKKLRTSGSMTQNPHEVARVRNLNRIIMGKYEIEPWYFSPYPIELTDEDFIYIDDFTLQYFGSKKQYERYRKKCTLRHPPGNEIYRDDYVSFFEIDGRKQRTWCRNLCLLSKLFLDHKTLYYDVDPFLFYCMTRRDELGHHLVGYFSKEKESADGYNVACILTLPQYQRMGYGKLLIEFSYELSKKENKVGSPEKPLSDLGLLSYRAYWSDTLITLLVEHQKEITIDEISSMTSMTTTDILHTAKTLNILRYYKGQHIIFLNEDILDRYNRLKAKKRRTIDPNRLIWKPPVFTASQLRFAW
As to B1, the “stoichiometry N” value in experiment [2] was determined as 1.

B2: Yng2 (residues 2–218, without PHD domain) of Piccolo v07 (domain or fragment)
chain: DPSLVLEQTIQDVSNLPSEFRYLLEEIGSNDLKLIEEKKKYEQKESQIHKFIRQQGSIPKHPQEDGLDKEIKESLLKCQSLQREKCVLANTALFLIARHLNKLEKNIALLEEDGVLAPVEEDGDMDSAAEASRESSVVSNSSVKKRRAASSSGSVPPTLKKKKTSRTSKLQNEIDVSSREKSVTPVSPSIEKKIARTKEFKNSRNGKGQNGSPENEE
With B2, the “stoichiometry N” value in experiment [2] came out at 1.
